Bridge positions count the residues as written; N and C are the ends. Ends that are not written are not given here. COCH2 = acetyl group that carries the bridge
Target: T1, Recombinant Human FGFR2 alpha (IIIc) Fc Chimera Protein, CF (R&D systems, 712-FR-050) (human, UniProt P21802 22-377)
T1 construct: bought; not shown: Fc part of the chimera
Assay: ELISA on plate-bound FGFR2-Fc
Method in brief: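 Plate-immobilized FGFR2 alpha (IIIc)-Fc (5 ng/well) incubated with peptide 3 h at room temperature, then anti-Myc antibody 2 h and chemiluminescent ELISA substrate. Signal corrected by subtracting FGFR-free wells; binding affinity scored into categories from the dose-response.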

T1 sequence (P21802 22-377, change not shown): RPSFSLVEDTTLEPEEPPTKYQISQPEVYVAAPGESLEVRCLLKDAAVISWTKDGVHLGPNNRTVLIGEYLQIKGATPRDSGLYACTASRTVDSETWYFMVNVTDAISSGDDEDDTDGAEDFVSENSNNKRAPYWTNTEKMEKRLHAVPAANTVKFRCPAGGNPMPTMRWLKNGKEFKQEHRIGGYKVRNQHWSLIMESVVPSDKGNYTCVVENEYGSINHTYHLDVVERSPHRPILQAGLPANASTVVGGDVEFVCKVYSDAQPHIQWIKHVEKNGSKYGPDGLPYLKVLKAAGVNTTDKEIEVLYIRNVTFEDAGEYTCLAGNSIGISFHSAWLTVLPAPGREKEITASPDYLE

Binder | ELISA luminescence signal at 10 nmol/L peptide, relative to SEQ ID NO: 47 (=1) [ratio]
YCEENYLDPEQYQYFWYFK(COCH2)Y (thioether 2-19 (inferred)) [cyclic peptide SEQ ID NO: 282] | ≥ 0.7
YCEENYLDPEQYQYFIYFK(COCH2)L (thioether 2-19 (inferred)) [cyclic peptide SEQ ID NO: 309] | ≥ 0.7
YCEENYLDPEQYQYFIIFK(COCH2)Y (thioether 2-19 (inferred)) [cyclic peptide SEQ ID NO: 294] | 0.5 to 0.7
YCEENYLDPEQYQYFIPFK(COCH2)Y (thioether 2-19 (inferred)) [cyclic peptide SEQ ID NO: 292] | 0.1 to 0.5
YCEENYLDPEQYQYFIVFK(COCH2)Y (thioether 2-19 (inferred)) [cyclic peptide SEQ ID NO: 295] | ≥ 0.7
YCEENYLDPEQYQYFHYFK(COCH2)Y (thioether 2-19 (inferred)) [cyclic peptide SEQ ID NO: 290] | ≥ 0.7
YCEENYLDPEQYQYFQYFK(COCH2)Y (thioether 2-19 (inferred)) [cyclic peptide SEQ ID NO: 284] | ≥ 0.7
YCAENYLDPEQYQYFIYFK(COCH2)Y (thioether 2-19 (inferred)) [cyclic peptide SEQ ID NO: 323] | ≥ 0.7
YCEENYLDPEQYQYFITFK(COCH2)Y (thioether 2-19 (inferred)) [cyclic peptide SEQ ID NO: 301] | ≥ 0.7
YCEENYLDPEQYQYFIYYK(COCH2)Y (thioether 2-19 (inferred)) [cyclic peptide SEQ ID NO: 306] | ≥ 0.7
YCEENYLDPEQYQYFDYFK(COCH2)Y (thioether 2-19 (inferred)) [cyclic peptide SEQ ID NO: 287] | ≥ 0.7
YCEENYLDPEQYQYFIYFK(COCH2)N (thioether 2-19 (inferred)) [cyclic peptide SEQ ID NO: 314] | ≥ 0.7
YCEENYLDPEQYQYFISFK(COCH2)Y (thioether 2-19 (inferred)) [cyclic peptide SEQ ID NO: 300] | ≥ 0.7
YCEENYLDPEQYQYFIYFK(COCH2)T (thioether 2-19 (inferred)) [cyclic peptide SEQ ID NO: 317] | ≥ 0.7
YCEENYLDPEQYQYFTYFK(COCH2)Y (thioether 2-19 (inferred)) [cyclic peptide SEQ ID NO: 286] | ≥ 0.7
YCEENYLDPEQYQYFIGFK(COCH2)Y (thioether 2-19 (inferred)) [cyclic peptide SEQ ID NO: 291] | 0.5 to 0.7
YCEENYLDPEQYQYFRYFK(COCH2)Y (thioether 2-19 (inferred)) [cyclic peptide SEQ ID NO: 289] | ≥ 0.7
YCEENYLDPEQYQYFIYFK(COCH2)H (thioether 2-19 (inferred)) [cyclic peptide SEQ ID NO: 321] | ≥ 0.7
YCEENYLDPEQYQYFIYFK(COCH2)R (thioether 2-19 (inferred)) [cyclic peptide SEQ ID NO: 320] | ≥ 0.7
YCEENYLDPEQYQYFIYFK(COCH2)E (thioether 2-19 (inferred)) [cyclic peptide SEQ ID NO: 319] | ≥ 0.7
YCEENYLDPEQYQYFIYFK(COCH2)W (thioether 2-19 (inferred)) [cyclic peptide SEQ ID NO: 313] | ≥ 0.7

Binder | ELISA luminescence signal at 10 nmol/L peptide, relative to SEQ ID NO: 47 (=1) [ratio]
YCEENYLDPEQYQYFIFFK(COCH2)Y (thioether 2-19 (inferred)) [cyclic peptide SEQ ID NO: 296] | ≥ 0.7
YCEENYLDPEQYQYFIHFK(COCH2)Y (thioether 2-19 (inferred)) [cyclic peptide SEQ ID NO: 305] | ≥ 0.7
YCEENYLDPEQYQYFINFK(COCH2)Y (thioether 2-19 (inferred)) [cyclic peptide SEQ ID NO: 298] | ≥ 0.7
YCEENYLDPEQYQYFIEFK(COCH2)Y (thioether 2-19 (inferred)) [cyclic peptide SEQ ID NO: 303] | ≥ 0.7
YCEENYLDPEQYQYFILFK(COCH2)Y (thioether 2-19 (inferred)) [cyclic peptide SEQ ID NO: 293] | ≥ 0.7
YCEENYLDPEQYQYFEYFK(COCH2)Y (thioether 2-19 (inferred)) [cyclic peptide SEQ ID NO: 288] | ≥ 0.7
YCEENYLDPEQYQYFIYFK(COCH2)I (thioether 2-19 (inferred)) [cyclic peptide SEQ ID NO: 310] | ≥ 0.7
YCEENYLDPEQYQYFIYFK(COCH2)D (thioether 2-19 (inferred)) [cyclic peptide SEQ ID NO: 318] | ≥ 0.7
YCEENYLDPEQYQYFIQFK(COCH2)Y (thioether 2-19 (inferred)) [cyclic peptide SEQ ID NO: 299] | ≥ 0.7
YCEENYLDPEQYQYFIYFK(COCH2)Q (thioether 2-19 (inferred)) [cyclic peptide SEQ ID NO: 315] | ≥ 0.7
YCEENYLDPEQYQYFSYFK(COCH2)Y (thioether 2-19 (inferred)) [cyclic peptide SEQ ID NO: 285] | ≥ 0.7
YCEENYLDPEQYQYFIYFK(COCH2)S (thioether 2-19 (inferred)) [cyclic peptide SEQ ID NO: 316] | ≥ 0.7
YCEENYLDPEQYQYFIYWK(COCH2)Y (thioether 2-19 (inferred)) [cyclic peptide SEQ ID NO: 307] | ≥ 0.7
ACEENYLDPEQYQYFIYFK(COCH2)Y (thioether 2-19 (inferred)) [cyclic peptide SEQ ID NO: 322] | ≥ 0.7
YCEENYLDPEQYQYFIWFK(COCH2)Y (thioether 2-19 (inferred)) [cyclic peptide SEQ ID NO: 297] | ≥ 0.7
YCEENYLDPEQYQYFIYFK(COCH2)F (thioether 2-19 (inferred)) [cyclic peptide SEQ ID NO: 312] | ≥ 0.7
YCEENYLDPEQYQYFIRFK(COCH2)Y (thioether 2-19 (inferred)) [cyclic peptide SEQ ID NO: 304] | ≥ 0.7
YCEENYLDPEQYQYFNYFK(COCH2)Y (thioether 2-19 (inferred)) [cyclic peptide SEQ ID NO: 283] | ≥ 0.7
YCEENYLDPEQYQYFIDFK(COCH2)Y (thioether 2-19 (inferred)) [cyclic peptide SEQ ID NO: 302] | ≥ 0.7
YCEENYLDPEQYQYFIYFK(COCH2)G (thioether 2-19 (inferred)) [cyclic peptide SEQ ID NO: 308] | ≥ 0.7
YCEENYLDPEQYQYFIYFK(COCH2)V (thioether 2-19 (inferred)) [cyclic peptide SEQ ID NO: 311] | ≥ 0.7

— patent publication US20260008815A1, “CYCLIC PEPTIDE OR SALT THEREOF, AND USES THEREOF” (FUJIFILM Corporation, priority 2023, published 2026)
